# Source: paper doi:10.1101/2021.01.20.427433, “Microarray screening reveals a non-conventional SUMO-binding mode linked to DNA repair by non-homologous end-joining” (bioRxiv, 2021)
# B1: 6xHis-XRCC4^1-164 (C-to-A), wildtype for the SIMs (domain or fragment, human, UniProt Q13426 1-164, looked up)
# chain: MERKISRIHLVSEPSITHFLQVSWEKTLESGFVITLTDGHSAWTGTVSESEISQEADDMAMEKGKYVGELRKALLSGAGPADVYTFNFSKESAYFFFEKNLKDVSFRLGSFNLEKVENPAEVIRELIAYALDTIAENQAKNEHLQKENERLLRDWNDVQGRFEK
# modifications: 15N-labelled where it is the observed protein in NMR
# notes: The three cysteines are printed for the 1-180 construct amplified from this vector; also called XRCC4 head domain; source: E. coli BL21-CodonPlus (DE3)-RIL (pET-28a), purified; isotope-labelled in minimal medium for NMR
# Biological target: T1, XLF-6xHis (human, UniProt Q9H9Q4 1-299)
# T1 construct: XLF, human, amplified from pGEX2TKP-XLF; source: E. coli (pHAT5), purified (His-trap, HiTrap Q)
# Test: BLI; XLF-6xHis and XRCC4^1-164 wildtype or mutants
# Conditions: both partners purified
# T1 sequence (Q9H9Q4 whole entry): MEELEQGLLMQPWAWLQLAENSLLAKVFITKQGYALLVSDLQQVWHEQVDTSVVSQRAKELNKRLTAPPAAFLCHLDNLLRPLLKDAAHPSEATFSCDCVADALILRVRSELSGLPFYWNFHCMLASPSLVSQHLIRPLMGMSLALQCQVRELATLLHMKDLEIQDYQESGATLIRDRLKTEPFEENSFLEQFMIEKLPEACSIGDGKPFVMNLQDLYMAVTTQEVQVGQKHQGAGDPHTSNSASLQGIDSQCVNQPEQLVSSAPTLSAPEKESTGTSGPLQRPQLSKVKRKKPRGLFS
binder,measurement,value
B1,binding result,binds
